B1: H2-Kb / Ed39 (parent complex)
chain 1: GEQVEQRPPHLSVREGDSAVIICTYTDPNSYYFFWYKQEPGAGLQLLMKVFSSTEINEGQGFTVLLNKKDKQLSLNLTAAHPGDSAVYFCATMSNYNVLYFGSGTKLTVEP
chain 2: GALVYQYPRRTICKSGTSMRMECQAVGFQATSVAWYRQSPQKTFELIALSTVNSAIKYEQNFTQEKFPISHPNLSFSSMTVLNAYLEDRGLYLCGARDGSYEQYFGPGTRLTVL
chain 3: not shown
chain 4: IQKTPQIQVYSRHPPENGKPNILNCYVTQFHPPHIEIQMLKNGKKIPKVEMSDMSFSKDWSFYILAHTEFTPTETDTYACRVKHDSMAEPKTVYWDRDM
chain 5: SIINFEKL
B2: H2-Kb / Ed33 (parent complex)
chain 1: SQLAEENSWALSVHEGESVTVNCSYKTSITALQWYRQKSGKGPAQLILIRSNEREKRNGRLRATLDTSSQSSSLSITATRCEDTAVYFCATDHNNAGAKLTFGGGTRLTVRP
chain 2: DAGVTQTPRHEVAEKGQTIILKCEPVSGHNDLFWYRQTKIQGLELLSYFRSKSLMEDGGAFKDRFKAEMLNSSFSTLKIQPTEPKDSAVYLCASSLYTNQAPLFGEGTRLSVL
chain 3: not shown
chain 4: B1 chain 4
chain 5: SIINFEKL
Also: test concentration or dose not given here.

Variants of B1 are the subject of the first experiment. Description: % of reporter cells activated (NFAT-GFP), raw.
For chain 5 K7P, the ratio to parent worked out at 0.326. For chain 5 K7S, the ratio to parent was found to be 0.293. The same measure, in the same setting: in the case of chain 5 K7H it was 0.0199; in that of chain 5 K7D, 0.00558; in that of chain 5 K7G, 0.0989. In the case of chain 5 K7E, the ratio to parent is 0.00639. Turning to chain 5 K7M, the ratio to parent amounted to 0.665. In the case of chain 5 K7C, the ratio to parent was 0.331.

As to chain 5 K7R, the ratio to parent worked out at 0.355. For the variant chain 5 K7W, the ratio to parent came to 0.355. The same measure, in the same setting: in the case of chain 5 K7N it was 0.0309.

As for chain 5 K7Y, the ratio to parent amounted to 0.0483. The same measure, in the same setting: for chain 5 K7V the value was 0.115; for chain 5 K7Q, 0.865. As to chain 5 K7T, the ratio to parent came out at 0.359. With chain 5 I2S, the ratio to parent worked out at 0.779. Consider chain 5 I2K, for which the ratio to parent came out at 0.396. chain 5 I2W: the ratio to parent was 0.453. Turning to chain 5 I2P, the ratio to parent amounted to 0.58.

chain 5 I2N: the ratio to parent was determined as 0.18. For the variant chain 5 I2G, the ratio to parent stood at 0.841.

chain 5 I2T: the ratio to parent turned out to be 0.781. Consider chain 5 I2E, for which the ratio to parent was determined as 0.719. On the same count and under the same terms, in the case of chain 5 I2L it was 1.03. As to chain 5 I2F, the ratio to parent was determined as 0.683.

As for chain 5 I2C, the ratio to parent was 0.926. Consider chain 5 I2M, for which the ratio to parent came out at 0.907.

Consider chain 5 F5N, for which the ratio to parent was determined as 0.484. On to chain 5 F5S, for which the ratio to parent was determined as 0.829.

With chain 5 F5L, the ratio to parent worked out at 0.765. In the case of chain 5 F5P, the ratio to parent amounted to 0.281. For the variant chain 5 F5Q, the ratio to parent was 0.712.

For chain 5 F5Y, the ratio to parent is 0.867.

Take chain 5 F5W: the ratio to parent was 0.738. As for chain 5 F5H, the ratio to parent turned out to be 0.791. On to chain 5 F5C, for which the ratio to parent was found to be 0.689. For chain 5 F5G, the ratio to parent stood at 0.454. The same measure, in the same setting: for chain 5 F5R the value was 0.562; for chain 5 F5T, 0.844. On the same count and under the same terms, in the case of chain 5 F5K it was 0.374; in that of chain 5 L8I, 0.771. For chain 5 L8F, the ratio to parent was 0.64. Still for that read-out and setting: in the case of chain 5 L8H it was 0.788. Same read-out and setting: for chain 5 L8R the value was 0.801; for chain 5 L8C, 0.483. With chain 5 L8S, the ratio to parent came out at 0.462. Turning to chain 5 L8M, the ratio to parent was found to be 0.762.

As for chain 5 L8Y, the ratio to parent turned out to be 0.83. Regarding chain 5 L8G, the ratio to parent was 0.676.

Regarding chain 5 L8T, the ratio to parent is 0.703. Still for that read-out and setting: for chain 5 L8A the value was 0.663; for chain 5 L8V, 0.591. Regarding chain 5 I3K, the ratio to parent was 0.286. On to chain 5 I3E, for which the ratio to parent was 0.558.

Take chain 5 I3W: the ratio to parent amounted to 0.472. On to chain 5 I3T, for which the ratio to parent turned out to be 0.416.

For chain 5 I3Q, the ratio to parent was found to be 0.3. For chain 5 I3M, the ratio to parent is 0.564.

Take chain 5 I3G: the ratio to parent amounted to 0.156. Consider chain 5 I3H, for which the ratio to parent is 0.0308.

chain 5 I3L: the ratio to parent was found to be 0.706.

chain 5 I3S: the ratio to parent was found to be 0.12.

Take chain 5 I3A: the ratio to parent came out at 0.56.

Take chain 5 E6G: the ratio to parent is 0.00768.

As for chain 5 E6S, the ratio to parent came out at 0.0298. On to chain 5 E6F, for which the ratio to parent worked out at 0.00457. For the variant chain 5 E6V, the ratio to parent is 0.0176. For the variant chain 5 E6M, the ratio to parent was found to be 0.0331.

As to chain 5 E6K, the ratio to parent turned out to be 0.308. For the variant chain 5 E6W, the ratio to parent was 0.00837. Same read-out and setting: in the case of chain 5 E6P it was 0.00676. On to chain 5 E6L, for which the ratio to parent was found to be 0.0111. As to chain 5 N4A, the ratio to parent turned out to be 0.0243. Regarding chain 5 N4H, the ratio to parent came out at 0.124. The same measure, in the same setting: for chain 5 N4M the value was 0.00879. chain 5 N4Q: the ratio to parent worked out at 0.00338.

As for chain 5 N4G, the ratio to parent was found to be 0.114. Take chain 5 N4E: the ratio to parent stood at 0.106.

chain 5 N4R: the ratio to parent was 0.22. In the case of chain 5 N4D, the ratio to parent was 1.25.

For the variant chain 5 N4I, the ratio to parent worked out at 0.00838. Regarding chain 5 N4F, the ratio to parent amounted to 0.0119. Consider chain 5 S1Y, for which the ratio to parent came out at 0.351. Consider chain 5 S1K, for which the ratio to parent worked out at 0.0783. Turning to chain 5 S1H, the ratio to parent was 0.0798. As to chain 5 S1N, the ratio to parent turned out to be 0.00689. On the same count and under the same terms, for chain 5 S1V the value was 0.0243; for chain 5 S1L, 0.00419. With chain 5 S1I, the ratio to parent is 0.00338. Consider chain 5 S1M, for which the ratio to parent stood at 0.00499. Consider chain 5 S1G, for which the ratio to parent worked out at 0.272. With chain 5 S1R, the ratio to parent was 0.0616. Take chain 5 S1F: the ratio to parent came to 0.00514.

In the next experiment the parent is B2. Description: % of reporter cells activated (NFAT-GFP), raw.
On to chain 5 S1Q, for which the ratio to parent worked out at 0.91.

chain 5 S1N: the ratio to parent was 0.173. Regarding chain 5 S1K, the ratio to parent was 0.121. On to chain 5 S1G, for which the ratio to parent was 0.48. Consider chain 5 S1H, for which the ratio to parent worked out at 0.634. For chain 5 S1W, the ratio to parent was 0.182. In the case of chain 5 S1D, the ratio to parent came to 1.05. Turning to chain 5 E6H, the ratio to parent was determined as 0.223.

As for chain 5 E6R, the ratio to parent was 0.00434. On the same count and under the same terms, for chain 5 E6V the value was 0.0218; for chain 5 E6N, 0.00413; for chain 5 E6P, 0.0303.

As to chain 5 E6M, the ratio to parent is 0.0967.

Regarding chain 5 E6Y, the ratio to parent was found to be 0.182.

Regarding chain 5 E6C, the ratio to parent came to 0.0452.

In the case of chain 5 E6F, the ratio to parent is 0.101. As to chain 5 E6W, the ratio to parent was found to be 0.0137. With chain 5 L8H, the ratio to parent was 0.968.

On to chain 5 L8P, for which the ratio to parent is 0.846. For the variant chain 5 L8D, the ratio to parent came out at 0.731. In the case of chain 5 L8N, the ratio to parent worked out at 0.905. For chain 5 L8W, the ratio to parent was 0.881. As for chain 5 L8K, the ratio to parent was 0.941. For the variant chain 5 L8Y, the ratio to parent amounted to 1.01. chain 5 I3M: the ratio to parent was 1.07.

For the variant chain 5 I3T, the ratio to parent stood at 1.04.

As to chain 5 I3H, the ratio to parent amounted to 0.895. With chain 5 I3D, the ratio to parent stood at 0.634. The same measure, in the same setting: in the case of chain 5 K7Q it was 0.0157. As to chain 5 K7P, the ratio to parent amounted to 0.372. Turning to chain 5 K7Y, the ratio to parent was 0.157. On to chain 5 K7M, for which the ratio to parent came to 0.0938.

Consider chain 5 K7W, for which the ratio to parent worked out at 0.74. The same measure, in the same setting: for chain 5 K7I the value was 0.018; for chain 5 K7S, 0.754; for chain 5 K7F, 0.0757. Still for that read-out and setting: for chain 5 K7A the value was 0.227. As to chain 5 K7V, the ratio to parent was 0.427. Take chain 5 F5K: the ratio to parent stood at 0.862. Regarding chain 5 F5R, the ratio to parent amounted to 0.982.

As to chain 5 F5C, the ratio to parent was found to be 1.05. chain 5 F5G: the ratio to parent was 0.844. As for chain 5 F5Q, the ratio to parent came out at 1.01. For chain 5 F5N, the ratio to parent is 0.876. Still for that read-out and setting: for chain 5 F5E the value was 0.625.

In the case of chain 5 N4L, the ratio to parent is 0.428. Turning to chain 5 N4D, the ratio to parent is 0.135. The same measure, in the same setting: for chain 5 N4F the value was 0.0234; for chain 5 N4C, 0.0904; for chain 5 N4P, 0.000438. Turning to chain 5 I2V, the ratio to parent turned out to be 1.04. Consider chain 5 I2F, for which the ratio to parent stood at 0.774. chain 5 I2T: the ratio to parent turned out to be 0.981. As to chain 5 I2N, the ratio to parent came to 1.01. chain 5 I2L: the ratio to parent was 1.05. On the same count and under the same terms, for chain 5 I2D the value was 0.897; for chain 5 I2R, 0.807.

These data come from PMC11480844 (2024).
